# Data published in US20180030149A1 (AVEO PHARMACEUTICALS, published 2018).
# Substitutions are numbered along the chain they refer to.
# B1: Sh24C05-45 (antibody, human IgG1, kappa, V domains shown)
# VH: EVQLVESGGGLVKPGGSLRLSCAASGFTFSDYAMSWVRQAPGKGLEWVSTISDGGTYTYYPDNVKGRFTISRDNAKNSLYLQMNSLRAEDTAVYYCAREWGDYDGFDYWGQGTLVTVSS
# VL: DIQMTQSPSSLSASVGDRVTITCRASQEISGYLSWYQQKPGKAPKLLIYAASTLDSGVPSRFSGSGSGTDFTLTISSLQPEDFATYYCLQYDSYPYTFGQGTKLEIKR
# notes: Humanized, human IgG1/kappa
# B2: Sh24C05-34 (antibody, human IgG1, kappa, V domains shown)
# VH: B1 VH with V5L, K13Q, A75S, S78T
# VL: B1 VL with L73F, F83I
# notes: Humanized, human IgG1/kappa
# B3: Sh24C05-14 (antibody, human IgG1, kappa)
# heavy: not shown
# light: DIQMTQSPSSLSASVGDRVTITCRASQEISGYLSWLQQKPGGAIKRLIYAASTLDSGVPSRFSGSGSGSDYTLTISSLQPEDFATYYCLQYDSYPYTFGQGTKLEIKRTVAAPSVFIFPPSDEQLKSGTASVVCLLNNFYPREAKVQWKVDNALQSGNSQESVTEQDSKDSTYSLSSTLTLSKADYEKHKVYACEVTHQGLSSPVTKSFNRGEC
# notes: Humanized, human IgG1/kappa
# B4: Sh24C05-19 (antibody, human IgG1, kappa, V domains shown)
# VH: B1 VH with E1Q, V37I
# VL: B1 VL with Y36L, K42G, P44I, L46R, T69S, F71Y
# notes: Humanized, human IgG1/kappa
# B5: Sh24C05-16 (antibody, human IgG1, kappa, V domains shown)
# VH: B1 VH with V5L, K13Q, A75S, S78T
# VL: B1 VL with Y36L, K42G, P44I, L46R, T69S, F71Y
# notes: Humanized, human IgG1/kappa
# B6: Sh24C05-23 (antibody, human IgG1, kappa, V domains shown)
# VH: B1 VH with E1Q, L11V, K13Q, G16R, S49A, A75S, S78T, N84S
# VL: B1 VL with Y36F, L46S
# notes: Humanized, human IgG1/kappa
# B7: Sh24C05-24 (antibody, human IgG1, kappa)
# heavy: not shown
# light: B3 light with L36F, G42K, I44P, R46S, S69T, Y71F
# notes: Humanized, human IgG1/kappa
# B8: Sh24C05-35 (antibody, human IgG1, kappa, V domains shown)
# VH: B1 VH with E1Q, L11V, K13Q, G16R, S49A, A75S, S78T, N84S
# VL: B1 VL with L73F, F83I
# notes: Humanized, human IgG1/kappa
# B9: Sh24C05-28 (antibody, human IgG1, kappa, V domains shown)
# VH: B1 VH with V5L, K13Q, A75S, S78T
# VL: B1 VL with L46R, D70E
# notes: Humanized, human IgG1/kappa
# B10: Sh24C05-26 (antibody, human IgG1, kappa)
# heavy: not shown
# light: B3 light with L36Y, G42K, I44P, S69T, D70E, Y71F
# notes: Humanized, human IgG1/kappa
# B11: Sh24C05-40 (antibody, human IgG1, kappa, V domains shown)
# VH: B1 VH with V5L, K13Q, A75S, S78T
# VL: B1 VL with M4L, S10F, D70E
# notes: Humanized, human IgG1/kappa
# B12: Sh24C05-18 (antibody, human IgG1, kappa)
# heavy: not shown
# light: B3 light
# notes: Humanized, human IgG1/kappa
# B13: Sh24C05-15 (antibody, human IgG1, kappa, V domains shown)
# VH: B1 VH
# VL: B1 VL with Y36L, K42G, P44I, L46R, T69S, F71Y
# notes: Humanized, human IgG1/kappa
# B14: Sh24C05-37 (antibody, human IgG1, kappa, V domains shown)
# VH: B1 VH with E1Q, V37I
# VL: B1 VL with L73F, F83I
# notes: Humanized, human IgG1/kappa
# B15: Sh24C05-20 (antibody, human IgG1, kappa)
# heavy: not shown
# light: B3 light with L36F, G42K, I44P, R46S, S69T, Y71F
# notes: Humanized, human IgG1/kappa
# B16: Sh24C05-33 (antibody, human IgG1, kappa, V domains shown)
# VH: B1 VH
# VL: B1 VL with L73F, F83I
# notes: Humanized, human IgG1/kappa
# B17: Sh24C05-29 (antibody, human IgG1, kappa, V domains shown)
# VH: B1 VH with E1Q, L11V, K13Q, G16R, S49A, A75S, S78T, N84S
# VL: B1 VL with L46R, D70E
# notes: Humanized, human IgG1/kappa
# B18: Sh24C05-27 (antibody, human IgG1, kappa, V domains shown)
# VH: B1 VH
# VL: B1 VL with L46R, D70E
# notes: Humanized, human IgG1/kappa
# B19: Sh24C05-30 (antibody, human IgG1, kappa)
# heavy: not shown
# light: B3 light with L36Y, G42K, I44P, S69T, D70E, Y71F
# notes: Humanized, human IgG1/kappa
# B20: Sh24C05-22 (antibody, human IgG1, kappa, V domains shown)
# VH: B1 VH with V5L, K13Q, A75S, S78T
# VL: B1 VL with Y36F, L46S
# notes: Humanized, human IgG1/kappa
# B21: Sh24C05-21 (antibody, human IgG1, kappa, V domains shown)
# VH: B1 VH
# VL: B1 VL with Y36F, L46S
# notes: Humanized, human IgG1/kappa
# B22: Sh24C05-38 (antibody, human IgG1, kappa)
# heavy: not shown
# light: B3 light with M4L, S10F, L36Y, G42K, I44P, R46L, S69T, D70E, Y71F
# notes: Humanized, human IgG1/kappa
# B23: Sh24C05-41 (antibody, human IgG1, kappa, V domains shown)
# VH: B1 VH with E1Q, L11V, K13Q, G16R, S49A, A75S, S78T, N84S
# VL: B1 VL with M4L, S10F, D70E
# notes: Humanized, human IgG1/kappa
# B24: Sh24C05-39 (antibody, human IgG1, kappa, V domains shown)
# VH: B1 VH
# VL: B1 VL with M4L, S10F, D70E
# notes: Humanized, human IgG1/kappa
# Biological target: T1, recombinant human ErbB3 monomeric protein (cleaved rhErbB3) (human, UniProt P21860 20-643, limits assumed)
# T1 construct: Monomer made by protease cleavage of the Fc fusion; also called Monomeric ErbB3
# Experiment: SPR Biacore 37 C; supernatant antibody captured on anti-human Fc, cleaved rhErbB3 injected
# Protocol: The analyses were performed at 37° C. using PBS (Invitrogen, Catalog No. 14040-133) containing 0.05% surfactant P20 (Biacore, Catalog No. BR-1000-54) as running buffer.
# The antibodies were captured in individual flow cells at a flow rate of […]. Injection time was varied for each antibody to yield an Rₘₐₓ between 30 and 60 RU. […] The dissociation phase was monitored for up to 1200 seconds. The surface was then regenerated with two 60 second injections of Glycine pH 2.25 (made from Glycine pH 2.0 (Biacore, Catalog No. BR-1003-55) and pH 2.5 (Biacore, Catalog No. BR-1003-56)) at […].
# Kinetic parameters were determined using the kinetic function of the BIAevaluation software (Biacore) with double reference subtraction. Kinetic parameters for each antibody, kₐ (association rate constant), kd (dissociation rate constant) and KD (equilibrium dissociation constant) were determined.
Kd [nM],koff [s⁻¹],kon [M⁻¹ s⁻¹],Binder
0.707,0.00606,8.57e+06,B1
0.552,0.006,1.09e+07,B2
0.173,0.000498,2.88e+06,B3
0.0855,0.000255,3e+06,B4
0.147,0.000404,2.75e+06,B5
0.263,0.000721,2.79e+06,B6
0.218,0.000628,2.9e+06,B7
0.655,0.00553,8.44e+06,B8
0.189,0.000614,3.26e+06,B9
0.22,0.000739,3.36e+06,B10
0.503,0.0106,2.11e+07,B11
0.161,0.000463,2.88e+06,B12
0.187,0.000499,2.67e+06,B13
0.374,0.002,5.94e+06,B14
0.221,0.000591,2.67e+06,B15
1.08,0.00433,4.02e+06,B16
0.182,0.000588,3.25e+06,B17
0.24,0.000798,3.34e+06,B18
0.19,0.000787,4.48e+06,B19
0.216,0.000601,2.79e+06,B20
0.22,0.000662,3.11e+06,B21
0.567,0.0154,2.71e+07,B22
0.669,0.0121,1.81e+07,B23
0.819,0.00967,1.18e+07,B24
